Data from paper doi:10.1101/2025.11.27.690993.

Target: SroF^Phi3T, master repressor of phage Phi3T (recombinant) (Bacillus phage Phi3T)
Experiment: BLI

For “Sar^Phi3T, shorter annotation lacking the first 10 amino acids (recombinant) (natural protein)”, which Kd is on record?
The Kd was 21.7 nM.
